Consider two molecules from patent US20020152485A1 (BOSTON HEART FOUNDATION, published 2002).

The target in assay [1] is T1, native human low density lipoprotein (LDL) (human, UniProt P04114 28-4563).
T1 construct: This is a lipoprotein particle (protein plus lipid), not an isolated polypeptide; also called native LDL; cold LDL
Nature of the assay: affinity coelectrophoresis (ACE): 125I-LBP-2 run through LDL cast in agarose; binding curve. The protocol: (§1) Analysis of the affinity and specificity of recombinant rabbit LBP-1, LBP-2 or LBP-3 binding to LDL was carried out using the principle of affinity electrophoresis (Lee and Lander, Proc. Natl. Acad. Sci. USA 88:2768-2772 (1991)). Melted agarose (1%; 65° C.) was prepared in 50 mM sodium MOPS, pH 7.0; 125 mM sodium acetate, 0.5% CHAPS. A teflon comb consisting of nine parallel bars (45×4×4 mm/3 mm spacing between bars) was placed onto GelBond film (FMC Bioproducts, Rockland, Me.) fitted to a plexiglass casting tray with the long axis of the bars parallel to the long axis of the casting tray. A teflon strip (66×1×1 mm) was placed on edge with the long axis parallel to the short axis of the casting tray, at a distance of 4 mm from the edge of the teflon comb. Melted agarose (>65° C.) was then poured to achieve a height of approximately 4 mm. […] LDL or HDL samples were prepared in gel buffer (50 mM sodium MOPS, pH 7.0, 125 mM sodium acetate) at twice the desired concentration. Samples were then mixed with an equal volume of melted agarose (in 50 mM MOPS, pH 7.0; 125 mM sodium acetate; 50° C.), pipetted into the appropriate rectangular wells and allowed to gel. The binding affinity and specificity of LBP-1 and LBP-3 was tested using several concentrations of LDL (540 to 14 nM) and HDL (2840177 nM). […]

For assay [2], the target named is T1, native human low density lipoprotein …. The assay is described as follows: affinity coelectrophoresis (ACE): 125I-LBP-3 run through LDL cast in agarose; binding curve. The protocol: as §1

As a reminder, the Kd is the concentration at which binding is half-saturated. Higher therefore signals a looser complex.

T1 sequence (P04114 28-4563): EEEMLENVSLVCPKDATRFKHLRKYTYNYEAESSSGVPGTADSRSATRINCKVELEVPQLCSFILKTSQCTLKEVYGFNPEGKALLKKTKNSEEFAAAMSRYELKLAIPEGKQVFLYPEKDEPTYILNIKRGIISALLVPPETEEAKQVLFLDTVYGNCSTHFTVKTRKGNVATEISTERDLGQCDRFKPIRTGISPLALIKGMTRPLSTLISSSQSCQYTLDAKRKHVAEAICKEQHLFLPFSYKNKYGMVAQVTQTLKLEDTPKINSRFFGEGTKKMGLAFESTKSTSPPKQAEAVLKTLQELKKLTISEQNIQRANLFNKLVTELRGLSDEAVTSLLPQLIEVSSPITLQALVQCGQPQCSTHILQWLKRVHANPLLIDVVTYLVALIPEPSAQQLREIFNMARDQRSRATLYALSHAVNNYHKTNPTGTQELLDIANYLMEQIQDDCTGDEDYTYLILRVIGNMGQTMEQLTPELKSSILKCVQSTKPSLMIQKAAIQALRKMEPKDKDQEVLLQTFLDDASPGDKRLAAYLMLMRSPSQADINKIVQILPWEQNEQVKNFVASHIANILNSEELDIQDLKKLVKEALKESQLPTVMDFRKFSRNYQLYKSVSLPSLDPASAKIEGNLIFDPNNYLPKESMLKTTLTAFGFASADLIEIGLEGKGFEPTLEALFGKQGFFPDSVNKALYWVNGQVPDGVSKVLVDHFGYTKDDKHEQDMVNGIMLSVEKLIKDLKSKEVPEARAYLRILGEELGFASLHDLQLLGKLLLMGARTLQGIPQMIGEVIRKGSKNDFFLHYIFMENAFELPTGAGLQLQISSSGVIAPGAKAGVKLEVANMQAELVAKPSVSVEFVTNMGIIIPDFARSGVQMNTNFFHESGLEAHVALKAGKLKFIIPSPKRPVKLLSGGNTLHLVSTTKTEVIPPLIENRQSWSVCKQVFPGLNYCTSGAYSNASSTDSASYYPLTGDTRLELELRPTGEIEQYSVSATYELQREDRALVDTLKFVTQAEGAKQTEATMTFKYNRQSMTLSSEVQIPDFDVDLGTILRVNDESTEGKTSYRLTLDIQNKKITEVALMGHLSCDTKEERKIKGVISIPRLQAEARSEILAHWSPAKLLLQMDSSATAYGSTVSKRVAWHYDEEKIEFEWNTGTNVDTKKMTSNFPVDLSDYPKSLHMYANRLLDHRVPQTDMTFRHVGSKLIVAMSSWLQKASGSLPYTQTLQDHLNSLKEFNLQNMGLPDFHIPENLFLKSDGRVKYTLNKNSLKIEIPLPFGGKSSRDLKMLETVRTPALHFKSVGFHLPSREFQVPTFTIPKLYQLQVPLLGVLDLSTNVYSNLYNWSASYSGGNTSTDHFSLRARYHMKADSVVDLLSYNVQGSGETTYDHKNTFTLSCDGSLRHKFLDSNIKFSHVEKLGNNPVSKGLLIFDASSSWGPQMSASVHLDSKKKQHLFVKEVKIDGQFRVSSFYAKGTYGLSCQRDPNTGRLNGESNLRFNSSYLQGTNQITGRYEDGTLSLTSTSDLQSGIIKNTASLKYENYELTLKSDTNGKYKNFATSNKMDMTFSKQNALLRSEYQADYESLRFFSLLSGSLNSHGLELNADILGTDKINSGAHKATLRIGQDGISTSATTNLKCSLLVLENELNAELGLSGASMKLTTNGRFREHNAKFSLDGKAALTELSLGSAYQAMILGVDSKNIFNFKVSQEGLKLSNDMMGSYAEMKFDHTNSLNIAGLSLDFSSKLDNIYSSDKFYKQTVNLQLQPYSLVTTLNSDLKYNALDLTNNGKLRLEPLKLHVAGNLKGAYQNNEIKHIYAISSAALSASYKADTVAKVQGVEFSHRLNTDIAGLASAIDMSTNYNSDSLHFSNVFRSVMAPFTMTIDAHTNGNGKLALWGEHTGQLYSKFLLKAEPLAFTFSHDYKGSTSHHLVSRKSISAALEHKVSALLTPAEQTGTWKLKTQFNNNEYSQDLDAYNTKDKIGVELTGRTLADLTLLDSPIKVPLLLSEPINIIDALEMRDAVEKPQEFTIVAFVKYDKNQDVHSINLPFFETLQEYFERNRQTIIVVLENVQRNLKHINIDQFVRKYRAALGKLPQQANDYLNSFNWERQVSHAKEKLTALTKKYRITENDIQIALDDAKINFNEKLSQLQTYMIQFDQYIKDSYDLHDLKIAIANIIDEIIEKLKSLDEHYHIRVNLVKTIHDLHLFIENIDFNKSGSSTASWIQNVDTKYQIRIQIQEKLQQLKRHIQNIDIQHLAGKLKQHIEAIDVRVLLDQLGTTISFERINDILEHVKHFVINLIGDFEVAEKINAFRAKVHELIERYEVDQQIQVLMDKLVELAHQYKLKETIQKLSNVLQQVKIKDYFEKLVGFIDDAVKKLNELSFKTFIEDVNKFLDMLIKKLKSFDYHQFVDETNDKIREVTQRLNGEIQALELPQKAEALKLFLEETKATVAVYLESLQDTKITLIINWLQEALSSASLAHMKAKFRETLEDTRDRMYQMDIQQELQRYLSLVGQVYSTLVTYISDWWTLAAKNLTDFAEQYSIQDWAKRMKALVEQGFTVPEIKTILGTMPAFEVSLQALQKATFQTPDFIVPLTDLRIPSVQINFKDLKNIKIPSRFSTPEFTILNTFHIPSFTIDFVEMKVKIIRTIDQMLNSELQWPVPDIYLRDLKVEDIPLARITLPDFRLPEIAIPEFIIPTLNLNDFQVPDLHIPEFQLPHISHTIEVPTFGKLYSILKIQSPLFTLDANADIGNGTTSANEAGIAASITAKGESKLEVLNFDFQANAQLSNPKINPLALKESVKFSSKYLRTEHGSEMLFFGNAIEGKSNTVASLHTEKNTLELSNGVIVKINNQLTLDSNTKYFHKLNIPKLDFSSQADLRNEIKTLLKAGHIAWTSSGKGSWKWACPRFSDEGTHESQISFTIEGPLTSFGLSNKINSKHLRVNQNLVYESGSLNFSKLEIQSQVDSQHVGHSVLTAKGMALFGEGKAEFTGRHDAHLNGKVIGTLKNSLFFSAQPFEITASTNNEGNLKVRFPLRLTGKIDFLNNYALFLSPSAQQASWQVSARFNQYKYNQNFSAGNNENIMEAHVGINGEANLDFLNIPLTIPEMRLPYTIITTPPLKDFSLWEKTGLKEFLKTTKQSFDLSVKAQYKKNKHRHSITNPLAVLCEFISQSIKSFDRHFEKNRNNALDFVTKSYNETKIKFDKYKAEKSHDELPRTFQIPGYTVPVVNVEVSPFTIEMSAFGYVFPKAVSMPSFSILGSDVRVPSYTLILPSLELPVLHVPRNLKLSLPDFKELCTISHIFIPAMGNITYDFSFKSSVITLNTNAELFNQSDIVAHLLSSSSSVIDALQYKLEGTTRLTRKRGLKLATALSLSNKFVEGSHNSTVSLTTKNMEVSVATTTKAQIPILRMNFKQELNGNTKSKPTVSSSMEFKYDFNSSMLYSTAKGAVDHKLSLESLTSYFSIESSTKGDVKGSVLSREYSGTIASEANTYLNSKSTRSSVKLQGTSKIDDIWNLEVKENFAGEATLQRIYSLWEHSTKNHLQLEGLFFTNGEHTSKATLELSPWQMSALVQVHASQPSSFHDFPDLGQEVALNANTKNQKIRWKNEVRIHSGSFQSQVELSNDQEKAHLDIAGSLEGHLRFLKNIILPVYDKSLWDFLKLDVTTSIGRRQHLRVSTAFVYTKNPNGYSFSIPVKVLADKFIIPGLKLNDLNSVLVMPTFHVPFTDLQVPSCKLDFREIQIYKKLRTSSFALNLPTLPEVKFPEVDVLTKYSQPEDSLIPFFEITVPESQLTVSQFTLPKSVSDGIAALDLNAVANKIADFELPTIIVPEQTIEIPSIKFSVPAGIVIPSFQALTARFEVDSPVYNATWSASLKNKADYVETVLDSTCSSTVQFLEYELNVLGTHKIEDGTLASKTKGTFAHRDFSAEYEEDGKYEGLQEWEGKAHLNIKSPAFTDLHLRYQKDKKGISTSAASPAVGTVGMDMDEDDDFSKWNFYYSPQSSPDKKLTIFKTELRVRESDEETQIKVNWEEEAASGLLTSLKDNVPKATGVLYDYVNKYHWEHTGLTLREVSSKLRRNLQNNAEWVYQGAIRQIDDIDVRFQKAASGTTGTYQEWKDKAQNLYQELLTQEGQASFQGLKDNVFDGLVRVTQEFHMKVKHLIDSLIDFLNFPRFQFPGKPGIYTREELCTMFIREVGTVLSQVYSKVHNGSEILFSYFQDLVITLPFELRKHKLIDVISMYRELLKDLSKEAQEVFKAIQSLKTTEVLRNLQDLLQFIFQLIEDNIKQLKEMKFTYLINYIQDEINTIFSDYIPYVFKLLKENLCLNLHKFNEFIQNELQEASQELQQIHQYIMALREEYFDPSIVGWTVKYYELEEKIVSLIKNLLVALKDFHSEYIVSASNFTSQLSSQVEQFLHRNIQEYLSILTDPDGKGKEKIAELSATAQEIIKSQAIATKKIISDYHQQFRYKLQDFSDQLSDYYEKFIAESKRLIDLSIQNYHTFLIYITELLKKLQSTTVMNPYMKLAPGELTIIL

B1: recombinant rabbit LBP-2 clone 26 (6-His tag) (other)
chain: PPPPQQPQPPPEGGAARAGGPARPVSLREVVRYLGGSSGAGGRLTRGRVQGLLEEEAAARGRLERTRLGALALPRGDRPGRAPPAASARAARNKRAGEERVLEKEEEEEEEEDDEDDDDDVVSEGSEVPESDRPAGAQHHQLNGGERGPQTAKERAKEWSLCGPHPGQEEGRGPAAGSGTRQVFSMAALSKEGGSASSTTGPDSPSPVPLPPGKPALPGADGTPFGCPAGRKEKPADPVEWTVMDVVEYFTEAGFPEQATAFQEQEIDGKSLLLMQRTDVLTGLSIRLGPALKIYEHHIKVLQQGHFEDDDPEGFLG
modifications: 125I-iodinated (Iodobeads) where used as the radiolabeled species in ACE assays
notes: Clone 26 contains the acidic region, residues 338-365; also called LBP-2 (rabbit clone 26); clone 26 derived LBP-2; not shown: N-terminal 6-histidine tag from the pPROEX-HT vector
For the molecule B1, binding in assay [1] was put at a Kd of 100 nM.

B2: recombinant rabbit LBP-3 (6-His tag) (other)
chain: MKNQDKKNGAAKQPNPKSSPGQPEAGAEGAQGRPGRPAPAREAEGASSQAPGRPEGAQAKTAQPGALCDVSEELSRQLEDILSTYCVDNNQGAPGEDGVQGEPPEPEDAEKSRAYVARNGEPEPGTPVVNGEKETSKAEPGTEEIRTSDEVGDRDHRRPQEKKKAKGLGKEITLLMQTLNTLSTPEEKLAALCKKYAELLEEHRNSQKQMKLLQKKQSQLVQEKDHLRGEHSKAILARSKLESLCRELQRHNRSLKEEGVQRAREEEEKRKEVTSHFQMTLNDIQLQMEQHNERNSKLRQENMELAERLKKLIEQYELREEHIDKVFKHKDLQQQLVDAKLQQAQEMLKEAEERHQREKDFLLKEAVESQRMCELMKQQETHLKQQLALYTEKFEEFQNTLSKSSEVFTTFKQEMEKMTKKIKKLEKETTMYRSRWESSNKALLEMAEEKTLRDKELEGLQVKIQRLEKLCRALQTERNDLNKRVQDLSAGGQGPVSDSGPERRPEPATTSKEQGVEGPGAQVPNSPRATDASCCAGAPSTEASGQTGPQEPTTATA
modifications: 125I-iodinated (Iodobeads) where used as the radiolabeled species in ACE assays
notes: also called LBP-3 (80 kDa fragment); rabbit recombinant LBP-3; not shown: N-terminal 6-histidine tag from the pPROEX-HT vector
As to B2, binding in assay [2] was put at a Kd of 333 nM.
